Target: T1, wild type HIV-1 Tat protein, FLAG-tagged, expressed in cells
T1 chain: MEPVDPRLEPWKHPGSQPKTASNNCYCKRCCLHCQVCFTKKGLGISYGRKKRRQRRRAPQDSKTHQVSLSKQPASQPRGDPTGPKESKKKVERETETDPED

B1: P/CAF (p300/CBP-associated factor), HA-tagged, expressed in cells (protein)
chain: MSEAGGAGPGGCGAGAGAGAGPGALPPQPAALPPAPPQGSPCAAAAGGSGACGPATAVAAAGTAEGPGGGGSARIAVKKAQLRSAPRAKKLEKLGVYSACKAEESCKCNGWKNPNPSPTPPRADLQQIIVSLTESCRSCSHALAAHVSHLENVSEEEMNRLLGIVLDVEYLFTCVHKEEDADTKQVYFYLFKLLRKSILQRGKPVVEGSLEKKPPFEKPSIEQGVNNFVQYKFSHLPAKERQTIVELAKMFLNRINYWHLEAPSQRRLRSPNDDISGYKENYTRWLCYCNVPQFCDSLPRYETTQVFGRTLLRSVFTVMRRQLLEQARQEKDKLPLEKRTLILTHFPKFLSMLEEEVYSQNSPIWDQDFLSASSRTSQLGIQTVINPPPVAGTISYNSTSSSLEQPNAGSSSPACKASSGLEANPGEKRKMTDSHVLEEAKKPRVMGDIPMELINEVMSTITDPAAMLGPETNFLSAHSARDEAARLEERRGVIEFHVVGNSLNQKPNKKILMWLVGLQNVFSHQLPRMPKEYITRLVFDPKHKTLALIKDGRVIGGICFRMFPSQGFTEIVFCAVTSNEQVKGYGTHLMNHLKEYHIKHDILNFLTYADEYAIGYFKKQGFSKEIKIPKTKYVGYIKDYEGATLMGCELNPRIPYTEFSVIIKKQKEIIKKLIERKQAQIRKVYPGLSCFKDGVRQIPIESIPGIRETGWKPSGKEKSKEPRDPDQLYSTLKSILQQVKSHQSAWPFMEPVKRTEAPGYYEVIRFPMDLKTMSERLKNRYYVSKKLFMADLQRVFTNCKEYNAAESEYYKCANILEKFFFSKIKEAGLIDK
Superinduction of Tat transactivation activity: as much as a 30-fold increase upon P/CAF stimulation

Source: patent US20040043378
